{"source": "patent US20240269315A1", "about": "“DRUG CONJUGATE AND USE THEREOF” (priority 2021, published 2024)", "binders": {"B1": {"name": "ADC4 (antibody, human IgG1, kappa, V domains shown)", "VH": "QVQLQQSGSELKKPGASVKVSCKASGYTFTNYGMNWVKQAPGQGLKWMGWINTYTGEPTYTDDFKGRFAFSLDTSVSTAYLQISSLKADDTAVYFCARGGFGSSYWYFDVWGQGTLVTVSS", "VL": "DIQLTQSPSSLSASVGDRVSITCKASQDVSIAVAWYQQKPGKAPKLLIYSASYRYTGVPDRFSGSGSGTDFTLTISSLQPEDFAVYYCQQHYITPLTFGAGTKVEIKR", "modifications": "CB07-Exatecan on cysteine thiols after TCEP reduction; positions not given; DAR (p) 4.2 per antibody"}}, "molecular_target": "T1, Trop2 (UniProt P09758 27-323, limits assumed)", "T1 sequence (looked up)": "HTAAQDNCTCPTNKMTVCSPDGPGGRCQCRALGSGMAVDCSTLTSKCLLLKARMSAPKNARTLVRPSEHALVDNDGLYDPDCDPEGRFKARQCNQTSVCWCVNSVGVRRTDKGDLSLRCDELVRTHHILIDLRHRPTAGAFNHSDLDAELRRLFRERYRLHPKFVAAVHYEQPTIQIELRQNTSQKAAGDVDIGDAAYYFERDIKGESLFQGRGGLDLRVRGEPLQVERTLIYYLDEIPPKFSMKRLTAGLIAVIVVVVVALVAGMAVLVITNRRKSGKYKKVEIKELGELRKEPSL", "assay": "cell-based or functional assay", "data": [{"binder": "B1", "values": [{"measurement": "EC50 (ng/mL), growth inhibition of Trop2 positive MDA-MB-453 cells (CCK-8, 120 h)", "result": 640, "unit": "ng/mL"}, {"measurement": "EC50 (ng/mL), growth inhibition of Trop2 positive MDA-MB-468 cells (CCK-8, 120 h)", "result": 158, "unit": "ng/mL"}, {"measurement": "EC50 (ng/mL), growth inhibition of Trop2 positive MX-1 cells (CCK-8, 120 h)", "result": 233, "unit": "ng/mL"}]}]}
